Results on three molecules are retold here after US20010016352, “NUCLEIC ACID SEQUENCES CONTROLLING LUNG CELL-SPECIFIC GENE EXPRESSION” (published 2001).

For series [1], the target named is T1, TTF-1 full length (UniProt P23441).
T1 sequence: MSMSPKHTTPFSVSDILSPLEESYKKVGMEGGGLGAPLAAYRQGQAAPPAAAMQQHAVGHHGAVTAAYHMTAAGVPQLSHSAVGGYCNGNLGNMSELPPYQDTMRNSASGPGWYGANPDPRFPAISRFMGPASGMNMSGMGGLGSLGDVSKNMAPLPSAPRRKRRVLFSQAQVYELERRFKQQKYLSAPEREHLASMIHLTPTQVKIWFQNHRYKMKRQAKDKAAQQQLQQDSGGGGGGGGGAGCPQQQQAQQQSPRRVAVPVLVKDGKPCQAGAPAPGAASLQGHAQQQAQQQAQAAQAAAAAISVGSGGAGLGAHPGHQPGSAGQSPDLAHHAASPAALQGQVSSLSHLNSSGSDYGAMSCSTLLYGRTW
The series can be described thus: cell_activity. The settings on record: SV40-P F + pCMV-TTF-1 in H441, relative to SV40-P =1 (3.5 without TTF-1).

Series [2] deals with T2, TTF-1 homeodomain (TTF-1 HD) (Rattus norvegicus, UniProt P23441 P23441:161-220).
T2 sequence: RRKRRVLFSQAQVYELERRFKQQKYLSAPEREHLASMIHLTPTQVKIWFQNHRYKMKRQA
Briefly: EMSA. The following applies: tags: bacterially expressed homeodomain fragment; label: 32P. For orientation: Mobility shift assays separate free from complexed probe on a gel.

In series [3] the target is T2, TTF-1 homeodomain (TTF-1 HD). The series can be described thus: EMSA; two complexes A' and B'; on ice, 5 mM MgCl2. The settings on record: tags: bacterially expressed homeodomain fragment; label: 32P. The procedure:
The electrophoretic mobility shift assay (EMSA) was adapted from Hennighausen and Lubon, Meth. Enzymol., Vol. 152, pgs. 727-735 (1987). Briefly, nuclear extract (1-2 μl) and, when indicated, unlabeled oligonucleotide competitor DNA were preincubated in 20 μl Buffer C (12 mM HEPES, pH 7.9; 4 mM Tris-Cl pH 7.9; 25 mM KCl; 5 mM MgCl₂; 1 mM EDTA; 1 mM DTT; 50 ng μl⁻¹ poly[d(I-C)], Boehringer Mannheim; 0.2 mM fresh PMSF) for 10 minutes on ice. Probe (100,000 dpm) was added and incubated an additional 20 minutes on ice. For antibody supershift and interference assays, 1 μl of antibody was added after the addition of probe and incubated an additional 20 minutes on ice. TTF-1 antibody is described in Lazzaro et al., Development, Vol. 113, pgs. 1093-1104 (1991). HNF-3α, β, and γ antibodies were kindly provided by Dr. J. E. Darnell, Jr. (Lai et al., Genes and Devel., Vol. 5, pgs. 416-427 (1991)). Recombinant, bacterially expressed TTF-1 homeodomain protein (TTF-1 HD) is described in Guazzi et al., EMBO J., Vol. 9, pgs. 3631-3639 (1990). Assays were performed using 1 μl TTF-1 HD in place of nuclear extract. Bound and free probe were resolved using non-denaturing polyacrylamide gel electrophoresis. […]

As for “CAGGGCTTGCCCTGGGTTAAGAGCCAGGCAGGAAGCTCTCAAGAGCATTGCTCAGAGGGGGCCTGGGTGGCCCAGGGAGGGGATGCGAGGGGAACACCCAGGC (double strand) [hSP-B -439/-331 enhancer]”, the activity in series [1] worked out at 8.3 fold.

B1: Ba wild type (dsDNA)
DNA 1: CAGGGCTTGCCCTGGGTTAAGAGCCAGGCA
DNA 2: TGCCTGGCTCTTAACCCAGGGCAAGCCCTG
B1: the binding result in series [2] is on record as “binds”.

B2: SPB-f1 (dsDNA)
DNA 1: AGCACCTGGAGGGCTCTTCAGAGC
DNA 2: GCTCTGAAGAGCCCTCCAGGTGCT
On to B2, for which the binding result in series [3] is “binds”.
